Residue numbers refer to the chain shown, from its start.
Assays:
Test in all cases: pull-down; 0.3–20 µg of His-14-3-3κ incubated with MBP or MBP-PIFs in MBP column buffer at 4 °C in dark for 5–6 h, then amylose resin overnight; elution with 10 mM maltose; blot with anti-His and anti-MBP
Conditions in all cases: both partners purified
[1] = target: T1, MBP-PIF3ala1+2 (PIF3 S23A S115A S116A) (Arabidopsis thaliana, UniProt O80536 1-524, S23A | S115A | S116A)
T1 construct: Transcription factor PIF3, Arabidopsis thaliana, AGI AT1G09530; ala1: Ser-23 to Ala; ala2: Ser-115 and Ser-116 to Ala; The cloning of the mutant into pMAL is not described on its own; source: E. coli BL21 (DE3), purified (amylose resin)
T1 sequence (looked up): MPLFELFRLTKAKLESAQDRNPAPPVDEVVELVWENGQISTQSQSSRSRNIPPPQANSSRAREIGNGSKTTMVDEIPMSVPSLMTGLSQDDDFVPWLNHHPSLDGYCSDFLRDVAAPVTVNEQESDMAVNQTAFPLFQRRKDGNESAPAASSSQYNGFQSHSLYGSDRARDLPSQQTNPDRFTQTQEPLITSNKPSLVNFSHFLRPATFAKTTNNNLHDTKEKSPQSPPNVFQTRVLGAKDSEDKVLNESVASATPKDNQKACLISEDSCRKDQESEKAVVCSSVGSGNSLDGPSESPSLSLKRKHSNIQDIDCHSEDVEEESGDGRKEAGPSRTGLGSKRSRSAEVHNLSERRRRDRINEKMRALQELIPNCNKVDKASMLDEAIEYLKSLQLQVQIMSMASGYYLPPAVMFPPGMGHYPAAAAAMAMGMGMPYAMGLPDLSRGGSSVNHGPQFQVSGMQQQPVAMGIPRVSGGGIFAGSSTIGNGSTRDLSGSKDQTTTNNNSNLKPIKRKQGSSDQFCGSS

MBP-PIF1 = target: T2, MBP-PIF1 (Arabidopsis thaliana, UniProt Q8GZM7 1-478)
T2 construct: Transcription factor PIF1, Arabidopsis thaliana; source: E. coli BL21 (DE3), purified (amylose resin)
T2 sequence (looked up): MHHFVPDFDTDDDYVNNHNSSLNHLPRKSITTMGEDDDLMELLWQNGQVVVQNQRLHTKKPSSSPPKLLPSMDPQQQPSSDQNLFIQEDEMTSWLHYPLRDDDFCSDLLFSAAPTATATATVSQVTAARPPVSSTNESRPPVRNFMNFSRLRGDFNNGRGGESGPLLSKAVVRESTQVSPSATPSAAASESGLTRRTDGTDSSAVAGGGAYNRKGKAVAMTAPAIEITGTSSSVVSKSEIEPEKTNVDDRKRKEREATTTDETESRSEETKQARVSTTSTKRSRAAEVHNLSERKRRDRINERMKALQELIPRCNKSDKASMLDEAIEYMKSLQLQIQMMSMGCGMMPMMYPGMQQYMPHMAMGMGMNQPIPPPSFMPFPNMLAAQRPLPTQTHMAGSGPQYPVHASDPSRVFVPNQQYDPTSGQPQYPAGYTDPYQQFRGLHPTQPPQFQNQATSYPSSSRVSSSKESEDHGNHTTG

[2] = target: T3, maltose-binding protein (MBP)-tagged PIF3 (Arabidopsis thaliana, UniProt O80536 1-524)
T3 construct: Transcription factor PIF3, Arabidopsis thaliana, AGI AT1G09530; also called MBP-PIF3; source: E. coli BL21 (DE3), purified (amylose resin)
T3 sequence (looked up): T1 sequence (looked up) with A23S, A115S, A116S

binding result [1]: binds
binding result (MBP-PIF1): binds
binding result [2]: binds
B1: His-tagged 14-3-3κ (natural protein, Arabidopsis thaliana, UniProt P48348 1-248, looked up)
chain: MATTLSRDQYVYMAKLAEQAERYEEMVQFMEQLVSGATPAGELTVEERNLLSVAYKNVIGSLRAAWRIVSSIEQKEESRKNEEHVSLVKDYRSKVETELSSICSGILRLLDSHLIPSATASESKVFYLKMKGDYHRYLAEFKSGDERKTAAEDTMIAYKAAQDVAVADLAPTHPIRLGLALNFSVFYYEILNSSEKACSMAKQAFEEAIAELDTLGEESYKDSTLIMQLLRDNLTLWTSDMQEQMDEA
notes: 14-3-3 kappa isoform, Arabidopsis thaliana; also called HIS-14-3-3κ; His-14-3-3κ

— article PMC4284738, “14-3-3 Proteins Participate in Light Signaling through Association with PHYTOCHROME INTERACTING FACTORs” (International Journal of Molecular Sciences, 2014)
